These results are taken from patent publication US20180312608A1 (NEW YORK UNIVERSITY, published 2018).

The Kd is a measure of binding affinity in units of concentration. Read a high Kd as a looser complex.

Test in all cases: Biacore (SPR), tau peptide
The target in one assay is T1, Tau379-408.
T1 construct: 30 amino acid synthetic peptide, not phosphorylated; also called Tau 379-408 (Ser396/Ser404)

The target in a further assay is Tau386-408 [P-Ser404] (phosphoserine at Ser404 of Tau (position 19 of SEQ ID NO:7)).
For assay [1], the target named is T2, Tau379-408 [P-Ser396/404] (phosphoserine at Ser396 and Ser404 (Tau numbering, SEQ ID NO:1)).
T2 construct: 30 amino acid synthetic peptide; also called Tau 379-408 (PSer396/PSer404)

Assay [2] deals with T3, Tau386-408 [P-Ser396/404] (phosphoserine at positions 11 and 19 (Ser396 and Ser404 of Tau)).
T3 construct: 23 amino acid peptide; also called Tau 386-408 (PSer396/PSer404)
T3 sequence (peptide, as listed by the source): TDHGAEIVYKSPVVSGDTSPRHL

T2 sequence (peptide, as listed by the source): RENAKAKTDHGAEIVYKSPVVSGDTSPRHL

B1: Antibody 4E6G7 (antibody, V domains shown)
VH: VQLQQSGAELVQPGASVKLSCTASGFNIKDTSMHWVRQRPEQGLEWIGRIAPANGNTKYDPKFQGKATITTDTSSNTAYLQLSSLTSEDTAVYYCSGSGNYDWGQGTTLTVS
VL: DIQMNQSPSSLSASLGDTITISCHASQNINVWLSWYQQKPGNIPKLLIFEASTLYTGVPSRFSGSGSGTGFTLTISSLQPEDIATYYCQQGQSYPWTFGGGTKLEIKR
notes: constant regions are not
For the molecule B1, the equilibrium dissociation constant (Kd) with Tau379-408 was determined as 212 nM; with Tau386-408 [P-Ser404], 278 nM; in assay [1], 271 nM; in assay [2], 469 nM.
